Test results reported in the supplement of paper PMC10065799, “High-throughput profiling of sequence recognition by tyrosine kinases and SH2 domains using bacterial peptide display” (eLife, 2023).

What was measured:
c-Src SH2 = assay: SH2 binding enrichment of the phosphorylated peptide, bacterial display (enrichment ratio); higher = better substrate or ligand; peptides without Tyr show the background
SHP2-C SH2 = assay: as above
Grb2 SH2 = Grb2 SH2 (UniProt P62993); assay: as above
EPHB2 = EPHB2 (UniProt P29323); assay: phosphorylation enrichment, bacterial display (enrichment ratio); higher = better substrate or ligand; peptides without Tyr show the background
Jak2 = Jak2 (UniProt O60674); assay: as above
Fer (mouse) = assay: as above
FGFR3 = FGFR3 (UniProt P22607); assay: as above
AncSZ = assay: as above
c-Src = assay: as above
EPHB1 = EPHB1 (UniProt P54762); assay: as above
Fes = Fes (UniProt P07332); assay: as above
Fyn = Fyn (UniProt P06241); assay: as above
FGFR1 = FGFR1 (UniProt P11362); assay: as above
Hck = Hck (UniProt P08631); assay: as above
MERTK = MERTK (UniProt Q12866); assay: as above
c-Abl (mouse) = assay: as above
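Throughout, for SH2 binding enrichment of the phosphorylated peptide, bacterial display: peptide library displayed on the E. coli surface as eCPX fusions, selected cells deep-sequenced, score is each peptide's frequency after selection divided by its frequency in the input.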
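Throughout, for phosphorylation enrichment, bacterial display: 11-residue human phosphosite peptides and single-mutation variants displayed on the E. coli surface, counted by deep sequencing, each peptide's frequency after selection divided by its frequency in the unselected input library; frequency after pTyr selection over input frequency; kinase dosed for 20-30% of maximal phosphorylation in three min.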

Chain of MERTK (Q12866 whole entry, looked up): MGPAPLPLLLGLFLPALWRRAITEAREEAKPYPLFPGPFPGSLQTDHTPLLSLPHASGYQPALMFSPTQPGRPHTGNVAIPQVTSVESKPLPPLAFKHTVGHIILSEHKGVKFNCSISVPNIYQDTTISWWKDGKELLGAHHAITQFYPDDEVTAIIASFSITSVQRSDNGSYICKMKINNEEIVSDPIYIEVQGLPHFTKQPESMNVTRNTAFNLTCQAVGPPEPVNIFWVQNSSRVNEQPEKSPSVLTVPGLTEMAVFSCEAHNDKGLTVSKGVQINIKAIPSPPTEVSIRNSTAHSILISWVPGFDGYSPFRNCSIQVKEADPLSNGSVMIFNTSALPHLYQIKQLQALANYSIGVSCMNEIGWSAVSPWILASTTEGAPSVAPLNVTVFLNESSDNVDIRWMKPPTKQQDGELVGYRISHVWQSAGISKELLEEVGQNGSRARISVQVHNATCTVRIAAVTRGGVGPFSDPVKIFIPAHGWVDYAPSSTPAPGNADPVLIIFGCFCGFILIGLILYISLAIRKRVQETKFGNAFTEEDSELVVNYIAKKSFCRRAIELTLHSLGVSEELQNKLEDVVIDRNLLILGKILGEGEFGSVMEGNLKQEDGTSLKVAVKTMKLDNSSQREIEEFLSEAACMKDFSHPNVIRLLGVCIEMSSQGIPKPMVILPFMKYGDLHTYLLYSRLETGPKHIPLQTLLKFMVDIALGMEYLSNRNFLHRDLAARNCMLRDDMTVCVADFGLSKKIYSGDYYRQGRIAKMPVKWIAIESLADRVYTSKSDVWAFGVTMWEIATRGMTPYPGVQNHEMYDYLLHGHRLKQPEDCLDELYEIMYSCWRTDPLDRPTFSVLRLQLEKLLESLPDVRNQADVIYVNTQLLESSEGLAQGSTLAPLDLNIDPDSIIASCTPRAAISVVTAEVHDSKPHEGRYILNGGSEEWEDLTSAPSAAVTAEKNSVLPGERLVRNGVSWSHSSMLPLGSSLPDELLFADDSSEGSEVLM
Chain of FGFR1 (P11362 whole entry, looked up): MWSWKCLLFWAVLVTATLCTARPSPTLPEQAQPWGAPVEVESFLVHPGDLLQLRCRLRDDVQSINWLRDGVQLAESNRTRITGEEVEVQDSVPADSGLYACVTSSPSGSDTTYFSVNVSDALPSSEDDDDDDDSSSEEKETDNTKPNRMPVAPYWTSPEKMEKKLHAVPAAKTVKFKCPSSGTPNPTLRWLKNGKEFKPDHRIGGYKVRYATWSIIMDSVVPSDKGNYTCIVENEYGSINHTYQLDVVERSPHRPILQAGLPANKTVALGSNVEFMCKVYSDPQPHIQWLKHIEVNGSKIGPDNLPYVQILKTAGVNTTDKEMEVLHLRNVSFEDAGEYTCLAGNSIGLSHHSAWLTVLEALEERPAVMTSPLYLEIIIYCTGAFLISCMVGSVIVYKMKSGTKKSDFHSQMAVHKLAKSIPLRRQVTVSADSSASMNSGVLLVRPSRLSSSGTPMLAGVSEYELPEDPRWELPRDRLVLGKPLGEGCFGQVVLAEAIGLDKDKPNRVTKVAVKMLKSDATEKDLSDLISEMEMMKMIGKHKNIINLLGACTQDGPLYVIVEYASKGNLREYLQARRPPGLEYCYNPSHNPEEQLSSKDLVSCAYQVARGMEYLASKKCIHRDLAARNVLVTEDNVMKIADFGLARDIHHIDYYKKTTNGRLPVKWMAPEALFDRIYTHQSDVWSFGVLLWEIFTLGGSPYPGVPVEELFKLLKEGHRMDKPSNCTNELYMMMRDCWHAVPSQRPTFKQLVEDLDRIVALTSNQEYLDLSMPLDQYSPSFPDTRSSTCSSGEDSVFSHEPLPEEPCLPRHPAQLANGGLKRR
Chain of EPHB2 (P29323 whole entry, looked up): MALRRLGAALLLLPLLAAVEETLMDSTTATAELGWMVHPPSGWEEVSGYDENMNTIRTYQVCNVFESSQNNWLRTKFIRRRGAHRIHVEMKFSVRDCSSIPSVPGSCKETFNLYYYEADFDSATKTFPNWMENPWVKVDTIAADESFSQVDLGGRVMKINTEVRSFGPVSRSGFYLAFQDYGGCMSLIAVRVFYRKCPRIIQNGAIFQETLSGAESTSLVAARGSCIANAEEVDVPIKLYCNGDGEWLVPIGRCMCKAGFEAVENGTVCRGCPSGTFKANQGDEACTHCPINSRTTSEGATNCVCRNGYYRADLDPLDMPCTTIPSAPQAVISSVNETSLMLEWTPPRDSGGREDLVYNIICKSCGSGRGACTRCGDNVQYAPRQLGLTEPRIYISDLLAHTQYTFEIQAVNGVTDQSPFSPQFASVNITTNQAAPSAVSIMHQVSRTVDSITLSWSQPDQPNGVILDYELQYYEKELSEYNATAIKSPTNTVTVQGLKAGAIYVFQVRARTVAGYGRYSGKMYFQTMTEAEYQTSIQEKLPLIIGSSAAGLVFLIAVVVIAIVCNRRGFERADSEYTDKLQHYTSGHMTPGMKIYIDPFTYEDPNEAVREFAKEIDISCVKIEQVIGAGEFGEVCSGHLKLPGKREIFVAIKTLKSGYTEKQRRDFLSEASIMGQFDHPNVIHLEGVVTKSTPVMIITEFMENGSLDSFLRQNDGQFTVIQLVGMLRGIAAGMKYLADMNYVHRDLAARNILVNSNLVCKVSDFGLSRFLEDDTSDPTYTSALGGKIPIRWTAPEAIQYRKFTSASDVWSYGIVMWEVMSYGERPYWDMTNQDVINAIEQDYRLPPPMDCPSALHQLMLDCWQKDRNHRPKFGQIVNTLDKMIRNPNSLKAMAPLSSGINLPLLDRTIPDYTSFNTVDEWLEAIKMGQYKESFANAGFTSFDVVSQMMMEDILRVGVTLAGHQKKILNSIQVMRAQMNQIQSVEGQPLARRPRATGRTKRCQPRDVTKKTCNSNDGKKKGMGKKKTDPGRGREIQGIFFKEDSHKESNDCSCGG
Chain of Jak2 (O60674 whole entry, looked up): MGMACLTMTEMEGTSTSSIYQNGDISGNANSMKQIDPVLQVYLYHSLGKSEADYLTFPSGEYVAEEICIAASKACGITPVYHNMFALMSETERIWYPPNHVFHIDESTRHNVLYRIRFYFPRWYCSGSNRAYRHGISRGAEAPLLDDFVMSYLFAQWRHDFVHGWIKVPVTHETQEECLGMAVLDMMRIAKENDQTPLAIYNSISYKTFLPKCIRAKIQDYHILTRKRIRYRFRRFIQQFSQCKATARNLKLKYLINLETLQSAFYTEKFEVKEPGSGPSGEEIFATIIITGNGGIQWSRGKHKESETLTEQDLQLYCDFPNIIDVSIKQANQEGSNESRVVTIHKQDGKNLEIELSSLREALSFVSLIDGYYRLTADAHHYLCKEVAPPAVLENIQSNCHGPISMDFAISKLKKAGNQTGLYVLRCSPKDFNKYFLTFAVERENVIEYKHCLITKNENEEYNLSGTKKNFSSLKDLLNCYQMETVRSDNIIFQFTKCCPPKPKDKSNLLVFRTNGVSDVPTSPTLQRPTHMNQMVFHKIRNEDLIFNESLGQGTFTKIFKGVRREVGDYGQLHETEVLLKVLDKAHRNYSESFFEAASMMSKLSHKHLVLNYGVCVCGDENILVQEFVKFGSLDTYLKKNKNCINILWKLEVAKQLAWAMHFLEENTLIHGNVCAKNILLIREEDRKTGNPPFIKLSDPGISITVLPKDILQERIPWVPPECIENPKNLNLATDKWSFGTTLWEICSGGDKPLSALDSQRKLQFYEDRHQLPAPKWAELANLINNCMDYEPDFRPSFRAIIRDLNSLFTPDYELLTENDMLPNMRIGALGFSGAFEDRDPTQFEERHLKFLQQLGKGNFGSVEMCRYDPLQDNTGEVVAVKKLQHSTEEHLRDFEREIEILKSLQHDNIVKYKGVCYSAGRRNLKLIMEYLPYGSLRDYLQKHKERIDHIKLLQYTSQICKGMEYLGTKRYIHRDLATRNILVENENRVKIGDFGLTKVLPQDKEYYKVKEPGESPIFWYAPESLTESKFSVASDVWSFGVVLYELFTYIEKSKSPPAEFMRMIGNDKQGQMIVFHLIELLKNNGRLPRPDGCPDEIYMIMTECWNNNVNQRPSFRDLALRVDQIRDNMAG
Chain of Fes (P07332 whole entry, looked up): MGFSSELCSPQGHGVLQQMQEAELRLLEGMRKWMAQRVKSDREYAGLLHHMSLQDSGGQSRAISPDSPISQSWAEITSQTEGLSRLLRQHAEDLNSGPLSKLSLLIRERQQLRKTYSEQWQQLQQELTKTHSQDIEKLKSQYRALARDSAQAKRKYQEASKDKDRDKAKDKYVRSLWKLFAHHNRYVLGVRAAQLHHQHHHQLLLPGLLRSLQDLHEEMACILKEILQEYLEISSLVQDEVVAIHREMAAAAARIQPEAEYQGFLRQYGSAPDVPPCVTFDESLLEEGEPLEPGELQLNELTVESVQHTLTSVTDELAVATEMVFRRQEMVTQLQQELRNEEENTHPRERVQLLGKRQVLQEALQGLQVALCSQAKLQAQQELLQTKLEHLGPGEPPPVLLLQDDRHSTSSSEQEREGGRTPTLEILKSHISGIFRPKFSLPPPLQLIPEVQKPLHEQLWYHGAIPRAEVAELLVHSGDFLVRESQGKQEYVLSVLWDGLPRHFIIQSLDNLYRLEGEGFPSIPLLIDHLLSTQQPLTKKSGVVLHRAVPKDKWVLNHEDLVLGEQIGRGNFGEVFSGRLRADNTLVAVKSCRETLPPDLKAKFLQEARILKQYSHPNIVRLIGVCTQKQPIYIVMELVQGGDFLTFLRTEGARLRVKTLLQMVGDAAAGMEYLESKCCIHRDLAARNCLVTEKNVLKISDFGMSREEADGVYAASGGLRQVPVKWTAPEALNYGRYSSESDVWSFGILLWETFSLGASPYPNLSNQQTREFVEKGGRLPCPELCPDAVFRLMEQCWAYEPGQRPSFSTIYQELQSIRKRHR

SH2 binding enrichment (c-Src SH2) | SH2 binding enrichment (SHP2-C SH2) | SH2 binding enrichment (Grb2 SH2) | Sequence | phosphorylation enrichment (EPHB2) | phosphorylation enrichment (Jak2) | phosphorylation enrichment (Fer (mouse)) | phosphorylation enrichment (FGFR3) | phosphorylation enrichment (AncSZ) | phosphorylation enrichment (c-Src) | phosphorylation enrichment (EPHB1) | phosphorylation enrichment (Fes) | phosphorylation enrichment (Fyn) | phosphorylation enrichment (FGFR1) | phosphorylation enrichment (Hck) | phosphorylation enrichment (MERTK) | phosphorylation enrichment (c-Abl (mouse))
0.398 | 1.1 | 0.867 | PLAVPYLDKPP [JMJD7_Y31] | 0.608 | 0.742 | 0.614 | 0.769 | 0.825 | 0.549 | 0.355 | 1.06 | 0.46 | 0.504 | 0.711 | 0.614 | 0.658
0.478 | 0.61 | 0.717 | PLDGEYFTLPI [TP53_Y327_Q331P] | 19.1 | 12.1 | 1.66 | 32.2 | 12.6 | 9.02 | 16.6 | 2.87 | 9.28 | 36.5 | 15.7 | 3.81 | 25
0.496 | 0.829 | 0.926 | PLFKICVAELI [MRPL28_Y230_Y230C] | 0.888 | 1.31 | 0.707 | 1.14 | 1.2 | 0.394 | 1.06 | 1.57 | 0.73 | 0.499 | 0.692 | 0.469 | 0.718
0.74 | 1.28 | 1.45 | PPLMLYNPTTY [EGFR_Y270] | 0.718 | 0.625 | 0.613 | 0.498 | 0.518 | 0.645 | 1 | 10.3 | 0.633 | 0.43 | 1.01 | 0.472 | 0.541
0.426 | 0.363 | 0.613 | PPTYRYERGSR [INPPL1_Y663] | 0.442 | 0.286 | 0.22 | 0.419 | 0.509 | 0.39 | 0.302 | 0.616 | 0.449 | 0.56 | 0.533 | 0.465 | 0.61
0.428 | 0.685 | 0.92 | PQGVGYPPQQQ [EP300_Y2219] | 0.619 | 0.915 | 0.46 | 0.871 | 0.962 | 0.579 | 0.44 | 1.17 | 0.573 | 0.897 | 0.612 | 0.619 | 0.655
0.686 | 1.14 | 1.16 | PRLMLYNPTTY [EGFR_Y270_P266R] | 0.905 | 1.08 | 0.7 | 0.776 | 0.922 | 0.526 | 0.889 | 1.21 | 0.601 | 0.731 | 0.692 | 0.649 | 0.812
0.49 | 0.696 | 0.763 | QDLFLYQTHSE [PKHD1_Y255] | 0.726 | 1.97 | 0.778 | 0.822 | 1.52 | 0.964 | 0.887 | 1.96 | 0.59 | 0.492 | 0.744 | 0.543 | 1.56
0.327 | 0.561 | 0.596 | QGFDTYFGYLL [ARSB_Y165_R160Q] | 10.3 | 5.92 | 6.45 | 5.48 | 2.72 | 6.32 | 5.42 | 1.64 | 9.48 | 5.78 | 8.44 | 4.3 | 0.92
0.483 | 0.638 | 0.886 | QHVPDYRQNVY [PCDHGA1_Y890] | 0.563 | 0.76 | 0.517 | 0.626 | 0.742 | 0.723 | 0.544 | 0.829 | 0.673 | 0.497 | 0.665 | 0.478 | 0.66
0.607 | 0.813 | 0.958 | QKINKYLTVPA [SLC9A1_Y683_N682K] | 0.67 | 0.588 | 0.567 | 0.854 | 1.77 | 0.762 | 0.282 | 0.625 | 0.461 | 0.659 | 0.356 | 0.52 | 0.462

Continued, sequence first:

Sequence | SH2 binding enrichment (c-Src SH2) | SH2 binding enrichment (SHP2-C SH2) | SH2 binding enrichment (Grb2 SH2) | phosphorylation enrichment (EPHB2) | phosphorylation enrichment (Jak2) | phosphorylation enrichment (Fer (mouse)) | phosphorylation enrichment (FGFR3) | phosphorylation enrichment (AncSZ) | phosphorylation enrichment (c-Src) | phosphorylation enrichment (EPHB1) | phosphorylation enrichment (Fes) | phosphorylation enrichment (Fyn) | phosphorylation enrichment (FGFR1) | phosphorylation enrichment (Hck) | phosphorylation enrichment (MERTK) | phosphorylation enrichment (c-Abl (mouse))
PIPAAYNKFDQ [CDC73_Y290_R292K_YF] | 0.509 | 0.86 | 0.946 | 1.39 | 0.653 | 0.798 | 0.925 | 1.54 | 0.611 | 0.687 | 0.864 | 0.745 | 0.57 | 0.661 | 0.415 | 0.684
PKGTGYIKTES [STAT1_Y701_L706S] | 0.425 | 0.427 | 0.997 | 0.449 | 1.22 | 0.392 | 0.487 | 0.588 | 0.601 | 0.504 | 1.2 | 0.466 | 0.604 | 0.525 | 0.553 | 0.868
PLDAEYFTLQI [TP53_Y327_G325A] | 0.43 | 0.738 | 0.779 | 0.826 | 3.1 | 0.883 | 6.59 | 2.57 | 4.2 | 0.876 | 1.63 | 2.47 | 8.68 | 1.57 | 0.603 | 1.29
PLDGEYFILQI [TP53_Y327_T329I] | 0.521 | 0.794 | 0.651 | 2.04 | 2.88 | 0.978 | 12.9 | 4.19 | 2.88 | 2.02 | 2 | 3.7 | 14.5 | 1.88 | 1.22 | 1.24
PLGKDYRKVEG [MAP1A_Y1909_A1912V] | 0.385 | 0.706 | 0.556 | 0.768 | 1.52 | 0.456 | 0.685 | 1.27 | 1.53 | 0.561 | 0.883 | 0.74 | 0.518 | 0.513 | 0.741 | 1.66
PMFHSYVSLPF [PLXNA2_Y293_K289M] | 3.37 | 1.4 | 0.745 | 1.86 | 2.01 | 0.789 | 2.26 | 1.4 | 0.751 | 1.98 | 1.56 | 1.08 | 3.85 | 3.34 | 1.2 | 0.712
PPAPRYHHSAV [LZTR1_Y119] | 1.07 | 1.1 | 1.31 | 0.44 | 0.781 | 0.587 | 0.79 | 0.655 | 0.384 | 0.432 | 1.26 | 0.457 | 0.38 | 0.717 | 0.351 | 0.677
PPGRSYSPCDY [TNS1_Y793_Y796C] | 1.26 | 0.772 | 1 | 0.83 | 1.02 | 0.602 | 0.799 | 1.19 | 0.581 | 0.512 | 1.16 | 0.922 | 0.73 | 0.586 | 0.638 | 0.832
PPGRSYSPYDY [TNS1_Y793] | 3.08 | 1.52 | 0.502 | 1.07 | 1.07 | 1.11 | 0.855 | 1.44 | 3.42 | 1.12 | 1.38 | 2.82 | 0.863 | 1.65 | 0.653 | 0.664
PQGVGYPQQQQ [EP300_Y2219_P2221Q] | 0.249 | 0.835 | 0.588 | 0.435 | 0.713 | 0.441 | 0.604 | 0.87 | 0.475 | 0.591 | 0.921 | 0.608 | 0.448 | 0.546 | 0.4 | 0.599
PQQLWYTHKKK [UBTF_Y207_E210K] | 0.515 | 0.702 | 0.592 | 1.14 | 1.07 | 0.598 | 0.589 | 1.14 | 0.7 | 0.774 | 1.14 | 0.52 | 0.888 | 0.821 | 1.22 | 0.981
PSSNLYFRWLT [CNGA3_Y168_YF] | 0.876 | 1.15 | 1.41 | 0.959 | 3.54 | 1.02 | 1.33 | 1.7 | 1.11 | 0.688 | 1.2 | 0.886 | 1.52 | 1.38 | 4.73 | 0.822
PSSRDYKHNIK [PIGN_Y227] | 0.495 | 0.774 | 0.895 | 0.47 | 0.481 | 0.569 | 0.587 | 0.442 | 0.417 | 0.321 | 0.572 | 0.456 | 0.448 | 0.474 | 0.463 | 0.471
PTTKTYFPHFY [HBA1_Y43_D48Y] | 0.73 | 1.25 | 0.771 | 0.735 | 0.974 | 0.825 | 1.14 | 0.782 | 0.56 | 0.46 | 0.873 | 0.884 | 0.628 | 0.535 | 0.508 | 0.785
PVFIKYLPEWT [PSEN1_Y240_L235P] | 0.606 | 0.884 | 1.28 | 0.715 | 1.62 | 0.759 | 1.04 | 1.45 | 0.626 | 0.64 | 1.68 | 0.447 | 0.515 | 0.519 | 0.475 | 1.07
PVQAASQKVVA [HBB_Y131_Y131S] | 0.432 | 0.712 | 0.623 | 0.414 | 0.398 | 0.414 | 1.55 | 0.482 | 0.469 | 0.592 | 1.36 | 0.445 | 0.477 | 0.426 | 0.396 | 0.571
PVVKLYATDGR [RP1_Y199] | 0.569 | 0.558 | 0.876 | 0.78 | 0.781 | 0.575 | 0.802 | 0.781 | 0.576 | 0.745 | 1.01 | 0.601 | 0.648 | 0.554 | 0.451 | 0.781
QAKRKYQEVSK [FES_Y156_A159V] | 0.616 | 0.448 | 0.957 | 0.443 | 0.227 | 0.233 | 0.37 | 0.463 | 0.193 | 0.231 | 0.257 | 0.365 | 0.424 | 0.373 | 0.311 | 0.326
QEALEYFMKQI [PIK3CA_Y1038_M1043I] | 0.455 | 0.926 | 0.704 | 0.547 | 1.53 | 0.599 | 0.744 | 1.68 | 0.714 | 0.845 | 1.43 | 0.545 | 0.616 | 0.631 | 0.449 | 1.28
QFNIQYSSSAA [ERBB2IP_Y981_YF] | 0.557 | 0.623 | 0.705 | 0.542 | 0.935 | 0.458 | 0.661 | 1.11 | 0.633 | 0.51 | 1.31 | 0.485 | 0.832 | 0.673 | 0.962 | 1.01
QGGRRYMMIVD [GAA_Y438] | 3.68 | 0.776 | 0.965 | 0.508 | 0.568 | 0.692 | 0.367 | 0.606 | 0.403 | 0.487 | 0.574 | 0.655 | 0.413 | 0.354 | 0.42 | 0.543
QGIFGYHHHMQ [UFSP2_Y287_Y290H_YF] | 0.945 | 0.936 | 1.16 | 0.781 | 1.07 | 0.779 | 0.792 | 0.941 | 0.498 | 0.639 | 1.04 | 0.395 | 0.892 | 0.664 | 0.521 | 0.652
